# Test results as given in patent CN114028562A (JIANGSU QYUNS BIOMEDICAL CO LTD, dated 2022).
# B1: Tezepelumab (antibody, V domains shown)
# VH: QMQLVESGGGVVQPGRSLRLSCAASGFTFRTYGMHWVRQAPGKGLEWVAVIWYDGSNKHYADSVKGRFTITRDNSKNTLNLQMNSLRAEDTAVYYCARAPQWELVHEAFDIWGQGTMVTVSS
# VL: SYVLTQPPSVSVAPGQTARITCGGNNLGSKSVHWYQQKPGQAPVLVVYDDSDRPSWIPERFSGSNSGNTATLTISRGEAGDEADYYCQVWDSSSDHVVFGGGTKLTVLG
# B2: QX008N(HZD8G2-57) (antibody, V domains shown)
# VH: EVQLVESGGGLVQPGGSLRLSCAASGFSLSSYYMSWVRQAPGKGLEWVGFISYGGSAYHATWAQGRFTISKDNSKNTLYLQMNSLRAEDTAVYYCAREFRSMTYGAEWGIWGQGTLVTVSS
# VL: AYQMTQSPSSVSASVGDRVTITCQASESIYDTLAWYQQKPGKAPKLLIYSASSLASGVPSRFSGSGSGTDFTLTISSLQPEDFATYYCQQGYTMPDVDKNPFGGGTKVEIKR
# Assays:
# 食蟹猴TSLP = 食蟹猴TSLP (cynomolgus monkey, UniProt A0A7N9CAT7 29-159); experiment: cell-based or functional assay
# 食蟹猴TSLP, sequence (A0A7N9CAT7 entry or part of it): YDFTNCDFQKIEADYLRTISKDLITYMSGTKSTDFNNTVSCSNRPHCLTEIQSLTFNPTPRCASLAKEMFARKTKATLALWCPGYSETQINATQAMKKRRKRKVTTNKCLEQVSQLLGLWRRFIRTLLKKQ
# [1] = target: T1, 人胸腺基质淋巴细胞生成素(Human Thymic Stromal Lymphopoietin, TSLP) (human, UniProt Q969D9 29-159); experiment: cell-based or functional assay
# [2] = target: T1, 人胸腺基质淋巴细胞生成素(Human Thymic Stromal …); experiment: SPR, Biacore T200, 25°C, antibody captured on Protein A chip, TSLP as analyte, 1:1 model, mean of three runs
Binder,"IC50, inhibition of cynomolgus TSLP-induced STAT5 phosphorylation in SW756-STAT5-Luciferase reporter cells (食蟹猴TSLP)","IC50, inhibition of human TSLP-induced STAT5 phosphorylation in SW756-STAT5-Luciferase reporter cells [1]","IC50, inhibition of human TSLP-induced TARC(CCL17) release from human PBMC [1]","IC50, inhibition of human TSLP-induced TARC(CCL17) release from human whole blood [1]",Kd [2],koff [2],kon [2]
B1,1.88 ng/mL,,,,,,
B2,0.889 ng/mL,0.837 ng/mL,77.1 ng/mL,0.839 ng/mL,0.0175 nM,2.99e-05 s⁻¹,1.74e+06 M⁻¹ s⁻¹
